Series [1] deals with Lanmodulin from Hansschlegelia quercus (Hans-LanM), wild type (Hansschlegelia quercus). Nature of the series: SEC; analytical size-exclusion chromatography of Hans-LanM in the presence of three equivalents of La(III). (In general: Size exclusion chromatography separates by hydrodynamic size, large species first.)
Series [2] has the same target. Kind of series: ITC; dilutive additions of 300 uM apo protein into matched buffer (30 mM MOPS, 100 mM KCl, pH 7.0), 30 °C; Dimer Dissociation model; dimer to monomers. Background: ITC needs no label: the signal is the heat of the interaction.
The target is the same in series [3]. Kind of series: SEC-MALS; Hans-LanM pre-incubated with 3 equiv. La(III), Nd(III) or Gd(III); 1.2-1.5 mg/mL loaded; buffer B (30 mM MOPS, 100 mM KCl, 5% glycerol, pH 7.0).
Series [4] shares this target. Kind of series: ITC; dilutive additions of 300 uM protein with 2 equivalents of Dy(III) into matched buffer (30 mM MOPS, 100 mM KCl, pH 7.0), 30 °C; Dimer Dissociation model; dimer to monomers.
For series [5] the target is unchanged. Nature of the series: ITC; dilutive additions of 150 uM or 540 uM protein with 2 equivalents of La(III) into matched buffer (30 mM MOPS, 100 mM KCl, pH 7.0), 30 °C; no change of heats seen, only an upper limit; dimer to monomers.
Series [6] deals with the molecule itself. Nature of the series: SEC; analytical Superdex 75 column (24 mL); protein metalated with 3.0 equiv. La(III).
Series [7] deals with the molecule itself. Nature of the series: SEC; analytical Superdex 75 column (24 mL); apo protein (590 uM, 100 uL) metalated with 3.0 equiv. Nd(III).
Series [8] concerns the molecule itself. Nature of the series: SAXS; La(III)-bound protein from SEC-MALS fractions, 1.5 mg/mL; 30 mM MOPS, 100 mM KCl, 5% glycerol, pH 7.0, 22 C; Porod volume, OLIGOMER and CRYSOL analyses.
Series [9] deals with the molecule itself. Kind of series: SAXS; Nd(III)-bound protein from SEC-MALS fractions, 1.4 mg/mL; 30 mM MOPS, 100 mM KCl, 5% glycerol, pH 7.0, 22 C; Porod volume, OLIGOMER and CRYSOL analyses.

Bounds are passed on as bounds.

In general, stoichiometry N refers to a count of units in the complex or per binding partner. The Kd is the constant that tells how readily two partners part at equilibrium. With “Lanmodulin from Hansschlegelia quercus (Hans-LanM), wild type (natural protein)”, the stoichiometry N in series [1] and in series [3] was 2 throughout. The Kd is 117 µM in [2], 60 µM in series [4] and < 0.4 µM in series [5].

B1: Hansschlegelia quercus lanmodulin (Hans-LanM), residues A24-K133 (natural protein)
chain: ASGADALKALNKDNDDSLEIAEVIHAGATTFTAINPDGDTTLESGETKGRLTEKDWARANKDGDQTLEMDEWLKILRTRFKRADANKDGKLTAAELDSKAGQGVLVMIMK
notes: lanmodulin (LanM) of Hansschlegelia quercus without its native 23-residue signal peptide; expressed with an N-terminal Met that is cleaved, so the first residue is A24; Metal-free (apo) or loaded with rare-earth(III) ions as named in each assay; expressed from pET-29b(+); also called wild-type Hans-LanM; source: E. coli, purified (SEC, dialysed against Chelex 100)
Turning to B1, the “stoichiometry N” value in series [6], in series [7], in [8] and in series [9] was 2 in each case.

Source of the values: paper PMC10232371, “Enhanced rare-earth separation with a metal-sensitive lanmodulin dimer” (Nature, 2023).
